The target in one data set is RNaseH1 D210N;RPA (Homo sapiens;Homo sapiens, UniProt O60930;P27694;P15927;P35244 27-286;1-616;1-270;1-121, D210N|). Kind of data set: EMSA.
For another data set, the target named is T1, RNaseH1 D210N (Homo sapiens, UniProt O60930 27-286, D210N).
T1 sequence: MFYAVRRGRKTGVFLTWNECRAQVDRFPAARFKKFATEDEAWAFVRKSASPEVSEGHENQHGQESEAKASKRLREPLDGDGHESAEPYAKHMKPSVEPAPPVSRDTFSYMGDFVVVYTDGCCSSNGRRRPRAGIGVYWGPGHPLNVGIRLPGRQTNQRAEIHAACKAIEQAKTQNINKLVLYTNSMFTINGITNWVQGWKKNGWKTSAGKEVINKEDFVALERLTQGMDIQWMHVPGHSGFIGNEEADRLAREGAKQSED
The data set can be described thus: EMSA. (In general: In EMSA bound probe runs differently from free probe, usually more slowly.)

Chain of RNaseH1 D210N;RPA (P27694 whole entry, chain 2 of 3): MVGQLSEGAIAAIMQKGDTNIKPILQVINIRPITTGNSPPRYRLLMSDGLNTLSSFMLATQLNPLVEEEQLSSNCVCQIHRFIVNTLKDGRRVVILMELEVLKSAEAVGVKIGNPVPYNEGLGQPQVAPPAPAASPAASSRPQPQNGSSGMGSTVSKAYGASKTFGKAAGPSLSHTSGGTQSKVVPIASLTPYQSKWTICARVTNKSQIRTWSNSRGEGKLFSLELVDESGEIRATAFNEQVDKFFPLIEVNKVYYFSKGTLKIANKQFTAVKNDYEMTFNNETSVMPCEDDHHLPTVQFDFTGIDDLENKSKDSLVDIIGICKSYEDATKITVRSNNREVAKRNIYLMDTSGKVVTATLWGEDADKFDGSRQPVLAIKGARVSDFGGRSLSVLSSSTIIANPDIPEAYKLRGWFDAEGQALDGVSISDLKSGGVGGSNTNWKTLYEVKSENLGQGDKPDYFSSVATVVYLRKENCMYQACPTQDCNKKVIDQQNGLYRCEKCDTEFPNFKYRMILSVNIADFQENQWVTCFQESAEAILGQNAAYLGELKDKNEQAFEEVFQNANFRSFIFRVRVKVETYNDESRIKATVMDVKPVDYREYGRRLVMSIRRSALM
Chain of RNaseH1 D210N;RPA (P15927 whole entry, chain 3 of 3): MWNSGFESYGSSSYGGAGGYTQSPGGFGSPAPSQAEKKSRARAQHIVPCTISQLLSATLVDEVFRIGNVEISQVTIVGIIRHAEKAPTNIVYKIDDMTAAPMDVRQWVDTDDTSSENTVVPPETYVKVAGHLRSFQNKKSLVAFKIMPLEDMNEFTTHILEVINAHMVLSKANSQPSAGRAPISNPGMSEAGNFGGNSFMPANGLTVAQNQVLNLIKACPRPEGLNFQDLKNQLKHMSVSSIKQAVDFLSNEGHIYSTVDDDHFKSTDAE
Chain of RNaseH1 D210N;RPA (P35244 whole entry, chain 4 of 3): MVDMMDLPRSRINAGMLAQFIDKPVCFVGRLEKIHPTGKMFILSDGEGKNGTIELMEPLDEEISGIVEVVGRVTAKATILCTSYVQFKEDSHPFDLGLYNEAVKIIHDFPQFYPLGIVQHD

B1: R:D (25-bp RNA:DNA hybrid) (DNA:RNA)
RNA: GCAGCUGGCACGACAGGUAUGAAUC
DNA: GATTCATACCTGTCGTGCCAGCTGC
For B1, the binding result with RNaseH1 D210N;RPA and with RNaseH1 D210N was “binds” each time.
